Assay results taken from patent US10822723B2, “Fusion protein crystal comprising a moiety” (Agency for Science, Technology and Research, priority 2015, dated 2020).

Columns and labels:
PAK1 = PAK1 (Homo sapiens, UniProt Q13153); assay: In vitro kinase assay, phosphorylation of GST-Raf13 by 6His-PAK1 (activated); type: biochemical; settings: FIG. 1c
Experimental: (§1) Purified PAK1 or PAK4 (50 nM in 25-50 μl) were incubated with 10 μM GST-Raf1S338 peptide in 10 μM ATP (2 μCi of γ32P ATP) of kinase buffer (25 mM Hepes, pH 7.3, 0.1% Triton-X100, 50 mM KCl, 10 mM MgCl2, 1 mM DTT) at 30° C. for 20 min. Samples were analysed by SDS-polyacrylamide gel electrophoresis, or adsorption of the GST substrate mix onto PVDF membranes, followed by extensive washing to remove free γ32P-ATP. The synthetic peptides of 95% purity, as determined by HPLC and MS analyses (GenScript), were soluble in aqueous PBS. Stock solutions (10 mM) were quantified via calculated extinction coefficients and absorbance measurements at 280 nm and stored at −80° C. The diluted peptides were incubated at the indicated concentrations with the kinase on ice (10 min) before addition of γ32P ATP and subsequent incubation at 30° C. The synthetic peptide array (Jerini Biotools) was phosphorylated in situ as described previously.

PAK4cat = molecular target: T1, PAK4cat (Homo sapiens, UniProt O96013); assay: In vitro kinase assay, phosphorylation of GST-Raf13 by PAK4cat; type: biochemical; settings: FIG. 1c
T1 construct: PAK1 (1-545) and PAK4 (286-591), respectively; 6His (N); made in house; host or cells: Escherichia coli BL21-CodonPlus(DE3)
Experimental: as §1

[1] = molecular target: T2, GFP-Inka1:Flag-PAK4cat crystal (Homo sapiens, UniProt O96013); assay: Live cell imaging of GFP-Inka1:PAK4cat crystal growth; type: cell-based; settings: 5 μM, FIG. 6d
T2 construct: the kinase catalytic domain of human PAK4 (278-591); expressed in transfected cells
Experimental: The cells were plated at 50% confluence glass cover slips overnight: plasmid transfection used GFP-iBox-Pak4cat and FLAG-iBox-Pak4cat constructs at a ratio of 4:1 to promote crystal nucleation. The cover slips were transferred to a Chamlide magnetic chamber (Live cell instruments, Seoul, Korea) with 5% CO2 at 37° C. for live imaging on an Zeiss Axiovert 200M Live Cell Imaging with a 10× objective. We imaged multiple chosen regions for 8 hours at 6 min intervals. To measure crystal growth rate, we used instead a Nikon Eclipse Ti microscope equipped with spinning disk confocal attachment (Yokogawa CSU-22 module) to avoid photo-damage. The cells were imaged at 60×1.4 NA objective at 2 min intervals. For SIM and confocal imaging, cells were fixed in non-hardening mounting media (Vectashield). The slides were imaged by Delta vision OMX SIM with a 100×1.4 NA objective. Confocal imaging used an Olympus FV1000 upright system with 60×1.42NA objective. The 3D stacks were analyzed by IMARIS software.

T2 sequence (O96013 278-591): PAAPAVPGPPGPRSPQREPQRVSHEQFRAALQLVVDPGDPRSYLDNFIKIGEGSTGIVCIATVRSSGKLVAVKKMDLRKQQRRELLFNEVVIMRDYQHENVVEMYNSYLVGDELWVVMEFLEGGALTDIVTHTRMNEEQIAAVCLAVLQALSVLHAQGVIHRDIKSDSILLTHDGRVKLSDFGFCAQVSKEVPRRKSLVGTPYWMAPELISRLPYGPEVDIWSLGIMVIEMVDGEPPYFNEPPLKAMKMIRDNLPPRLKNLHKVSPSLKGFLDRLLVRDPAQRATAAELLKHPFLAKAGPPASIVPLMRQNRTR
PAK1, sequence (Q13153 whole entry): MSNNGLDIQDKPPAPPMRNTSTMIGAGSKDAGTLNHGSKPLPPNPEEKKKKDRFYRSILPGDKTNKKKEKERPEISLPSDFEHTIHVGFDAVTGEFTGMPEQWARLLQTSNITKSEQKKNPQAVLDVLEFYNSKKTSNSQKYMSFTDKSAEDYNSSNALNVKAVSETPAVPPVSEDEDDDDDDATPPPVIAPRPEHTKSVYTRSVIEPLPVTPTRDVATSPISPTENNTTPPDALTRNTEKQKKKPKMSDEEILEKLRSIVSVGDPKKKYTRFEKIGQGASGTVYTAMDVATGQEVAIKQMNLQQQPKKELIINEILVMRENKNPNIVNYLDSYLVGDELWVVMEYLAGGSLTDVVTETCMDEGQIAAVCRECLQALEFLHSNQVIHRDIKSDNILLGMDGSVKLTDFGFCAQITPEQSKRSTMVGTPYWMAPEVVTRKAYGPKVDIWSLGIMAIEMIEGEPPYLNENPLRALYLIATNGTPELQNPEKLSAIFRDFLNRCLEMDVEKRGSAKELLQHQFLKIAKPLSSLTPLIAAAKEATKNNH
T1 sequence (O96013 286-591): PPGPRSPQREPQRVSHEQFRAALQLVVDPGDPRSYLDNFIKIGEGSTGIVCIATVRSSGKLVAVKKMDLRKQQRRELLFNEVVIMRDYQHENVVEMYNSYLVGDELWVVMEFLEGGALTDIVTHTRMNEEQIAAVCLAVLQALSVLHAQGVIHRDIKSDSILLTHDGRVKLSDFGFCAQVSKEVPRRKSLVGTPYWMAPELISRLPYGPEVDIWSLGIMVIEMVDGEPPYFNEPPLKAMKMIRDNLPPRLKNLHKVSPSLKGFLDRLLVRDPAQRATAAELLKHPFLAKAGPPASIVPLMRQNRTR

| effect on PAK1 (PAK1) | PAK4cat inhibition in vitro (PAK4cat) | GFP signal of co-crystals during the elongation phase ([1]; GFP-Inka1:HA-PAK4cat co-crystals) | crystal growth after drug addition ([1]; growing GFP-Inka1:Flag-PAK4cat crystal) | Compound |
| --- | --- | --- | --- | --- |
| does not affect | potent | – | – | GST-iBox: recombinant 38 amino acid 'Inka box' (Inka1 residues 166-203) as GST fusion |
| – | – | depleted of GFP signal | slowed | Cc1nc(Nc2[nH]nc3c2CN(C(=O)N[C@H](CN(C)C)c2ccccc2)C3(C)C)c2sccc2n1 [PF-03758309] |
